Source: article PMC9529537 (The Innovation, 2022)

Biological target: E protein on YFV virions (Yellow fever virus, strain of the …)
Assay: flow cytometry on cells

| Binder | binding result |
| --- | --- |
| YD73 human monoclonal antibody, full-length IgG1 (antibody, V domains shown) VH: QVQLVQSGAEVKKPGASVKVSCKASGYTFIAYGISWVRQAPGQGLEWMGWISAHNGNTNYAQKFQGRVTVTTDTTTRTAFMELRNLRSDDTAVYYCARAPWEYNYRSSGYYDSPYWGQGTLVTVSS VL: EIVLTQSPGTLSLSPGERATLSCRASQSVVSTYLAWYQQKPGQAPRLLIYDTSTRATGIPDRFSGSGSGTDFTLTISRLEPEDFAVYYCQHYDSSPPWTFGQGTKVEIK | binds |
| YD6 human monoclonal antibody, full-length IgG1 (antibody, V domains shown) VH: EVQLVESGGGLVKPGGSLRLSCAASGFIFSDYYMMWIRQAPGKGLEWISYISSSGSQIYYTESVKGRFTISRDNGKNLLYLQMNSLRGEDTALYYCATETGWRIDTWGQGTLVTVSS VL: QAVLTQPASVSGSPGQSITISCTGTGSNIETYNLVSWYQRHPGKAPKLILYEVSERPSGVSNRFSGSKSGNTASLTISGLQAEDEADYFCCSYADTNIFWVFGGGTHLTVL | binds |
